Experimental data: patent publication US20040171629

T1: annexin V, P08758
T1 chain: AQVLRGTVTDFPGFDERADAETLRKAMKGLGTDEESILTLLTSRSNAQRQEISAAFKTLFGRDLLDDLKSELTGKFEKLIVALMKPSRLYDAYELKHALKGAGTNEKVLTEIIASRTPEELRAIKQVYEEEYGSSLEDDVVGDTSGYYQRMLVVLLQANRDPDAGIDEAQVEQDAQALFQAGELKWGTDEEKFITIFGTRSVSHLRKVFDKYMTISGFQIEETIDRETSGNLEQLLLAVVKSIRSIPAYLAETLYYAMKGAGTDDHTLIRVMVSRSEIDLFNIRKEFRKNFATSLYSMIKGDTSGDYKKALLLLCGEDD


Columns and labels:
[1] = target: FITC-labeled, dephosphorylated casein
[2] = target: kidney membrane associated proteins
annexin V, P08758 = target: T1, annexin V, P08758

Row | Protein | proteolytic activity, fluorescence at 535 nm of Dcasein-FITC [1] | cleavage in human kidney membrane extract, 2-dimensional gel electrophoresis [2] | proteolytic activity, SDS-PAGE with Coomassie Blue staining (β-casein) | cleavage in human kidney cytoplasmic extract, 2-dimensional gel electrophoresis (annexin V, P08758)
1 | MBP-Omi-(134-458) (protein) AVPSPPPASPRSQYNFIADVVEKTAPAVVYIEILDRHPFLGREVPISNGSGFVVAADGLIVTNAHVVADRRRVRVRLLSGDTYEAVVTAVDPVADIATLRIQTKEPLPTLPLGRSADVRQGEFVVAMGSPFALQNTITSGIVSSAQRPARDLGLPQTNVEYIQTDAAIDFGNSGGPLVNLDGEVIGVNTMKVTAGISFAIPSDRLREFLHRGEKKNSSSGISGSQRRYIGVMMLTLSPSILAELQLREPSFPDVQHGVLIHKVILGSPAHRAGLRPGDVILAIGEQMVQNAEDVYEAVRTQSQLAVQIRRGRETLTLYVTPEVTE | there was a rapid increase in fluorescence for the first 20 min followed by a slower increase for the remaining 10 min of the assay |  |  | 
2 | His-tagged Omi-(134-458) (protein) AVPSPPPASPRSQYNFIADVVEKTAPAVVYIEILDRHPFLGREVPISNGSGFVVAADGLIVTNAHVVADRRRVRVRLLSGDTYEAVVTAVDPVADIATLRIQTKEPLPTLPLGRSADVRQGEFVVAMGSPFALQNTITSGIVSSAQRPARDLGLPQTNVEYIQTDAAIDFGNSGGPLVNLDGEVIGVNTMKVTAGISFAIPSDRLREFLHRGEKKNSSSGISGSQRRYIGVMMLTLSPSILAELQLREPSFPDVQHGVLIHKVILGSPAHRAGLRPGDVILAIGEQMVQNAEDVYEAVRTQSQLAVQIRRGRETLTLYVTPEVTE |  | No proteins were cleaved in the membrane bound fractions | had substantial activity against β-casein, and after 30 min total degradation of the substrate occurred | two polypeptides (32 kD and 29 kD) in the human kidney cytoplasmic fraction were specifically cleaved by His-Omi
